According to article PMC3317499 (2012):

B1: Myc-Mal-TIR wild type (TIR domain of human MyD88 adaptor-like protein, residues 79-221, double-tagged with His6 and Myc) [human] / GST-MyD88-TIR (TIR domain of human MyD88, residues 148-296, GST fusion) [human] (parent complex)
chain 1: SSRWSKDYDVCVCHSEEDLVAAQDLVSYLEGSTASLRCFLQLRDATPGGAIVSELCQALSSSHCRVLLITPGFLQDPWCKYQMLQALTEAPGAEGCTIPLLSGLSRAAYPPELRFMYYVDGRGPDGGFRQVKEAVMRYLQTLS
chain 2: TTLDDPLGHMPERFDAFICYCPSDIQFVQEMIRQLEQTNYRLKLCVSDRDVLPGTCVWSIASELIEKRCRRMVVVVSDDYLQSKECDFQTKFALSLSPGAHQKRLIPIKYKAMKKEFPSILRFITVCDYTNPCTKSWFWTRLAKALSLP
B2: Myc-Mal-TIR wild type (TIR domain of human MyD88 adaptor-like protein, residues 79-221, double-tagged with His6 and Myc) [human] / GST-TLR4-TIR (TIR domain of human TLR4, residues 670-839, GST fusion) [human] (parent complex)
chain 1: B1 chain 1
chain 2: GENIYDAFVIYSSQDEDWVRNELVKNLEEGVPPFQLCLHYRDFIPGVAIAANIIHEGFHKSRKVIVVVSQHFIQSRWCIFEYEIAQTWQFLSSRAGIIFIVLQKVEKTLLRQQVELYRLLSRNTYLEWEDSVLGRHIFWRRLRKALLDGKSWNPEGTVGTGCNWQEATSI

Variants of: B1
Test: GST pull-down, quantified Western blot; n = 3 separate experiments; parent: 1; read off a plot

| ratio to parent | Variant |
| --- | --- |
| ~0.42 | chain 1 F39A |
| ~0.76 | chain 1 E30A |

Variants of: B2
Test: as above

| ratio to parent | Variant |
| --- | --- |
| ~0.24 | chain 1 F39A |
| ~0.39 | chain 1 E30A |
